Results on two molecules are retold here after article PMC3778974 (Cell, 2013).

Assay [1] concerns the target T1, Def1_(1-500), recombinant (Def1_(1-500)-His) (S. cerevisiae, UniProt P35732 1-500).
T1 sequence (looked up): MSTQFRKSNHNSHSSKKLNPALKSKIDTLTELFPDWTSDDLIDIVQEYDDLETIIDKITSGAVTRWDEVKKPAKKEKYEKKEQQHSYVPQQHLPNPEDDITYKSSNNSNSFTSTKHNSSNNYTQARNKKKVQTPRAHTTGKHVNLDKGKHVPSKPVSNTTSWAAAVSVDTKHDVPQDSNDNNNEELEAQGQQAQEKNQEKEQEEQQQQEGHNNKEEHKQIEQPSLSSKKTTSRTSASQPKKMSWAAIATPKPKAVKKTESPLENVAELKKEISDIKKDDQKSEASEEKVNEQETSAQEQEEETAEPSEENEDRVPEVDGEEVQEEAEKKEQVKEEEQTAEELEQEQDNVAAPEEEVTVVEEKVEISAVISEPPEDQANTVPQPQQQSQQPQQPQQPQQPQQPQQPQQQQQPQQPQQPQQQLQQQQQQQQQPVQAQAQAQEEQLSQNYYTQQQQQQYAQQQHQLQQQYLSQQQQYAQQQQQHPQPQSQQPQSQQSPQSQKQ
Nature of the assay: pull-down.

Assay [2] addresses T1, Def1_(1-500), recombinant …. Nature of the assay: pull-down. The source holds these as a separate data set.

Read-outs that look alike come from different tables or passages of the source.

B1: recombinant Ela1-Elc1 heterodimer (full-length His-Ela1 with Elc1) (complex, S. cerevisiae)
chain 1: MKSLQTLCEISLMRNHSNIQSVSNVPYHLLKRILQKVKIPQLLKLEKSNVLLIFDDDELWLEFLRQDFPTNVHEQFVSKRDIICKYYFDFVKENDIELYHSNQDLLKSCVRQSVVKDIRNNKYRIPYRMLYSKYQQEVEKKQEESAERLRLEMQKLQQEREKKQTIVVDHTVYFKKRNTKKTTRLHNEPHSQLYMKSLKDHESRLKHFKDGGFNIAKRHAQRVAFGGQAGGQSSSPKKGPLSIKPEPVKVNRQMDNVTAEKKDVTQPITPVKKRRSESPSIFLNRKKPALFRPTPKTNAAGSRPHTTAITNDHRTTSHPYPHKDVVTSISSVTANPVTKGHKKKKSGIFVRNAGSDGDSFPHVTATGPTTRPYIYEPRK
chain 2: MSQDFVTLVSKDDKEYEISRSAAMISPTLKAMIEGPFRESKGRIELKQFDSHILEKAVEYLNYNLKYSGVSEDDDEIPEFEIPTEMSLELLLAADYLSI
With B1, in assay [1], the binding result is “binds”.

B2: GST-Ela1_(250–379) (domain or fragment, S. cerevisiae, UniProt P53861 250-379, looked up)
chain: VNRQMDNVTAEKKDVTQPITPVKKRRSESPSIFLNRKKPALFRPTPKTNAAGSRPHTTAITNDHRTTSHPYPHKDVVTSISSVTANPVTKGHKKKKSGIFVRNAGSDGDSFPHVTATGPTTRPYIYEPRK
In the case of B2, the binding result in assay [2] is given as “binds”.
